T1: TNFR1-FC fusion (human TNFR1 receptor binding assay) (human, UniProt P19438 22-211, limits assumed)
T1 construct: also called TNFR1 (RBA); not shown: Fc part, captured by goat anti-human IgG (H&L); not described further
T1 sequence (looked up): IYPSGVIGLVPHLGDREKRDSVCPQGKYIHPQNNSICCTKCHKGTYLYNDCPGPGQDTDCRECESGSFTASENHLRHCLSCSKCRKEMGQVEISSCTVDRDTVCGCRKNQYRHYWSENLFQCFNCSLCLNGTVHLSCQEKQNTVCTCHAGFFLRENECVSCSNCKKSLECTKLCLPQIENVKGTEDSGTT

T2: TNFR1 on MRC-5 cells (UniProt P19438 30-455, limits assumed)
T2 sequence (looked up): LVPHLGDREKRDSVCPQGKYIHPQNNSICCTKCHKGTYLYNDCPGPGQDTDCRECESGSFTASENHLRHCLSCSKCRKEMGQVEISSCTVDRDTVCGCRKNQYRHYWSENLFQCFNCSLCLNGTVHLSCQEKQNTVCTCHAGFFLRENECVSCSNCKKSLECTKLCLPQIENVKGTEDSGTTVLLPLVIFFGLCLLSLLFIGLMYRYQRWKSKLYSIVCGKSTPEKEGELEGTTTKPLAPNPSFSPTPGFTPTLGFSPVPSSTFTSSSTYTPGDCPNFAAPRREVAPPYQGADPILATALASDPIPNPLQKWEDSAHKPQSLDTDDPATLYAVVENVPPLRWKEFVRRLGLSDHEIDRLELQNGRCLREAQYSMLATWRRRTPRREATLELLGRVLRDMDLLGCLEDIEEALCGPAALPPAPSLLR


Key:
[1] = biological target: T1, TNFR1-FC fusion (human TNFR1 receptor …); assay: RBA assay; taken as the value of the Fc fusion
TNFR1 on MRC-5 cells = biological target: T2, TNFR1 on MRC-5 cells; assay: cell-based or functional assay

Binder	Activity (nM), RBA [1] [nM]	ND50, MRC-5 cell-based assay (TNFα stimulated IL-8 release) (TNFR1 on MRC-5 cells) [nM]
DMS1544 (DOM1h-131-206 Fc fusion) (Fc fusion, not shown: a dimerising Fc or GST, Dimeric Fc fusion) EVQLLESGGGLVQPGGSLRLSCAASGFTFAHETMVWVRQAPGKGLEWVSHIPPDGQDPFYADSVKGRFTISRDNSKNTLYLQMNSLRAEDTAVYHCALLPKRGPWFDYWGQGTLVTVSSASTHTCPPCPAPELLGGP	0.047	
DOM1h-131-206 (other) VH: EVQLLESGGGLVQPGGSLRLSCAASGFTFAHETMVWVRQAPGKGLEWVSHIPPDGQDPFYADSVKGRFTISRDNSKNTLYLQMNSLRAEDTAVYHCALLPKRGPWFDYWGQGTLVTVSS		0.71
